Test results taken from patent US20220050116A1.

Biological target: synthetic collagen peptides
Test: ELISA-like assay: biotin-labeled peptides titrated on plate-immobilized D-CHP, 4-parameter Hill fit

Q: How did the Kd turn out when “D-CHP, dimeric collagen hybridizing peptide [Ac-(GPO)6-G3]2-K-GK (designed binder)” was run?
A: The Kd was 0.01 to 0.27 µM.
